According to IntAct's records for PubMed 14681217:

B1: Integrin beta-7 (Homo sapiens), P26010 (parent)
chain: MVALPMVLVLLLVLSRGESELDAKIPSTGDATEWRNPHLSMLGSCQPAPSCQKCILSHPSCAWCKQLNFTASGEAEARRCARREELLARGCPLEELEEPRGQQEVLQDQPLSQGARGEGATQLAPQRVRVTLRPGEPQQLQVRFLRAEGYPVDLYYLMDLSYSMKDDLERVRQLGHALLVRLQEVTHSVRIGFGSFVDKTVLPFVSTVPSKLRHPCPTRLERCQSPFSFHHVLSLTGDAQAFEREVGRQSVSGNLDSPEGGFDAILQAALCQEQIGWRNVSRLLVFTSDDTFHTAGDGKLGGIFMPSDGHCHLDSNGLYSRSTEFDYPSVGQVAQALSAANIQPIFAVTSAALPVYQELSKLIPKSAVGELSEDSSNVVQLIMDAYNSLSSTVTLEHSSLPPGVHISYESQCEGPEKREGKAEDRGQCNHVRINQTVTFWVSLQATHCLPEPHLLRLRALGFSEELIVELHTLCDCNCSDTQPQAPHCSDGQGHLQCGVCSCAPGRLGRLCECSVAELSSPDLESGCRAPNGTGPLCSGKGHCQCGRCSCSGQSSGHLCECDDASCERHEGILCGGFGRCQCGVCHCHANRTGRACECSGDMDSCISPEGGLCSGHGRCKCNRCQCLDGYYGALCDQCPGCKTPCERHRDCAECGAFRTGPLATNCSTACAHTNVTLALAPILDDGWCKERTLDNQLFFFLVEDDARGTVVLRVRPQEKGADHTQAIVLGCVGGIVAVGLGLVLAYRLSVEIYDRREYSRFEKEQQQLNWKQDSNPLYKSAITTTINPRFQEADSPTL

Variants of: B1
Conditions: with ita4_human ITGA4, P13612
ita4_human ITGA4, P13612, sequence (P13612 whole entry): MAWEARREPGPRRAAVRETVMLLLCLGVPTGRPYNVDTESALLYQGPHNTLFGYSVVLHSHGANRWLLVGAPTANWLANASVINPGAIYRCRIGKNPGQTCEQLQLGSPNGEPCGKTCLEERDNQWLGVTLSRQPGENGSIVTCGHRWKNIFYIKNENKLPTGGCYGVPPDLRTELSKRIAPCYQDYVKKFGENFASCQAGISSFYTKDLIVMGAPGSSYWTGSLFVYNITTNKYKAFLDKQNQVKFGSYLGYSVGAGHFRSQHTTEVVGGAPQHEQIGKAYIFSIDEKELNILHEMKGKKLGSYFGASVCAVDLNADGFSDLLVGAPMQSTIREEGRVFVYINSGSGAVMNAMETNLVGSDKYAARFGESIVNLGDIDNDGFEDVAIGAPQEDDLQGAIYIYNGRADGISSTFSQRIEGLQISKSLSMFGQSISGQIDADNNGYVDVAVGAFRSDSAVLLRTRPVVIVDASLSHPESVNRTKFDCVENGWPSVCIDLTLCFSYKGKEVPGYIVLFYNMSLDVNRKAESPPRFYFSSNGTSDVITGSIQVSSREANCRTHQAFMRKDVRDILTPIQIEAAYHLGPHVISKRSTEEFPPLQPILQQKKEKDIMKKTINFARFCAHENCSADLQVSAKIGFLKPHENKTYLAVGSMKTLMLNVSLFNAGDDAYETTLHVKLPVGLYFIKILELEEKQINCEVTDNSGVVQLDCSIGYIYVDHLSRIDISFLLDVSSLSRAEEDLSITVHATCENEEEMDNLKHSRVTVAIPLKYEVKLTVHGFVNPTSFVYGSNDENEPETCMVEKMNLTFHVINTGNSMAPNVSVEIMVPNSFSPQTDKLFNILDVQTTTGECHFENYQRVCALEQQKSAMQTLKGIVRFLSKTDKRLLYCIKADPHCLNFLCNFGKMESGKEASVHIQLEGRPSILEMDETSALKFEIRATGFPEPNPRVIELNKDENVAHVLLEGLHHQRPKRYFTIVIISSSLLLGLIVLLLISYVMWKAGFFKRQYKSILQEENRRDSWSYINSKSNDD
G730I was tested, and the “effect of a mutation on the interaction” value was “decreasing interaction”. G734I was tested, and the “effect of a mutation on the interaction” value was “decreasing interaction”.
